Assay results as given in patent publication US20120004133A1.

Biological target: Ang II type 1 receptor on rat vascular smooth muscle cells (rat) (UniProt P25095)
Experiment: cell-based or functional assay

Sequence of UniProt P25095 (P25095 whole entry): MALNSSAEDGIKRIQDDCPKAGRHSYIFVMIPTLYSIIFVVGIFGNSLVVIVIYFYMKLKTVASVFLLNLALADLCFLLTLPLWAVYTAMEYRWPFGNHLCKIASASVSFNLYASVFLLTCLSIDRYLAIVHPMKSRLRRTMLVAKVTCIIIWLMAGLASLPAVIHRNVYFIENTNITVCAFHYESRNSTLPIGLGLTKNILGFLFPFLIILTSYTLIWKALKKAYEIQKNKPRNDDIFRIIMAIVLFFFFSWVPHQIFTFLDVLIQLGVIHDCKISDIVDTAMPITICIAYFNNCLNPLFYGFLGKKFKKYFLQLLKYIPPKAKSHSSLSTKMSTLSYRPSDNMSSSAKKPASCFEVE

MFG-E8 protein level in old VSMC (Western blot): 40%
Substance: [Sar1, Gly8]-Ang II acetate hydrate (peptide)
